Measured values reported in article PMC12396215.

How the values were obtained:
[1] = target: extracellular domain of EpCAM (EpCAM ECD) (UniProt P16422); assay: other fluorescence titration; Kd of the probe for EpCAM ECD calculated from the increase of SiP fluorescence (Figure S10)
[2] = target: extracellular domain of EpCAM (EpCAM ECD) (UniProt P16422); assay: fluorescence increase of the DARPin-SiP conjugate on adding the antigen (plate reader); probe pretreated with DTT; probe 500 nM, EpCAM ECD 1 uM
[3] = target: extracellular domain of EpCAM (EpCAM ECD) (UniProt P16422); assay: fluorescence increase of the DARPin-SiP conjugate on adding the antigen (plate reader); conjugate 500 nM (not pretreated with DTT), EpCAM ECD 1 uM; fold activation = fluorescence at 31 min divided by that just before EpCAM ECD

Chain of UniProt P16422 (P16422 24-265): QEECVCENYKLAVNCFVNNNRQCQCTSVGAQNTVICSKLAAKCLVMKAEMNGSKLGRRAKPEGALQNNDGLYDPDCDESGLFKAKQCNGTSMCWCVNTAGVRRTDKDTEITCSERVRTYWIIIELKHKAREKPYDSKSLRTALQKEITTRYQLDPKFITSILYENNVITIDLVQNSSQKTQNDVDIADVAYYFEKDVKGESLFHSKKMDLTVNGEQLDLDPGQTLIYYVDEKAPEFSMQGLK

## Ec1 K152C-5-Gly SiP conjugate (designed binder)
[1]
  Kd: 238 nM
[2]
  fold activation of SiP fluorescence on adding EpCAM ECD: > 12 fold
[3]
  fold increase of SiP fluorescence on adding EpCAM ECD: 7 fold
